The target of this assay is HLA-A*02:01 (Homo sapiens, UniProt P04439, D140Y/D185E/D98H/E176V/E277Q/G131W/G231S/I119V/I121R/I166T/I218V/L300P/L318F/N151K/N90K/P208A/P217A/Q86G/Q94H/R138H/R169H/T345S). The experiment in a line: MHC binding assay (UV-ligand exchange, anti-β2m ELISA). The following applies: peptide exchange yield, binding to HLA-A*02:01. An excerpt:
Candidate peptides for T cell based therapies according to the present invention were further tested for their MHC binding capacity (affinity). The individual peptide-MHC complexes were produced by UV-ligand exchange, where a UV-sensitive peptide is cleaved upon UV-irradiation and exchanged with the peptide of interest as analyzed. Only peptide candidates that can effectively bind and stabilize the peptide-receptive MHC molecules prevent dissociation of the MHC complexes. To determine the yield of the exchange reaction, an ELISA was performed based on the detection of the light chain (β2m) of stabilized MHC complexes. The assay was performed as generally described in Rodenko et al. (Rodenko et al., 2006).
96 well MAXISorp plates (NUNC) were coated over night with 2 μg/ml streptavidin in PBS at room temperature, washed 4× and blocked for 1 h at 37° C. in 2% BSA containing blocking buffer. Refolded HLA-A*02:01/MLA-001 monomers served as standards, covering the range of 15-500 ng/ml. Peptide-MHC monomers of the UV-exchange reaction were diluted 100-fold in blocking buffer. Samples were incubated for 1 h at 37° C., washed four times, incubated with 2 μg/ml HRP conjugated anti-β2m for 1 h at 37° C., washed again and detected with TMB solution that is stopped with […]. Absorption was measured at 450 nm. Candidate peptides that show a high exchange yield (preferably higher than 50%, most preferred higher than 75%) are generally preferred for a generation and production of antibodies or fragments thereof, and/or T cell receptors or fragments thereof, as they show sufficient avidity to the MHC molecules and prevent dissociation of the MHC complexes.
In general terms: ELISA stands for enzyme-linked immunosorbent assay.
“55 (KTWDQSIAL; peptide displayed by HLA-A*02) [compound 55]”: the Peptide exchange entry is “++++ (≥75% = ++++)”. Turning to “89 (SLFIDVTRV; peptide displayed by HLA-A*02) [compound 89]”, the Peptide exchange result is given as “++++ (≥75% = ++++)”.

Consider “28 (FLLDGTDMFHM; peptide displayed by HLA-A*02) [compound 28]”, for which the Peptide exchange entry is on record as “+++ (≥50% = +++)”.

As for “51 (HLCNHDVSL; peptide displayed by HLA-A*02) [compound 51]”, the Peptide exchange entry is listed as “++++ (≥75% = ++++)”. The same measure for “13 (VLMDGTLKQV; peptide displayed by HLA-A*02) [compound 13]”: “++++ (≥75% = ++++)”; for “21 (FLNLFDHTL; peptide displayed by HLA-A*02) [compound 21]”: “++++ (≥75% = ++++)”. In the case of “2 (RLLEGDFSL; peptide displayed by HLA-A*02) [compound 2]”, the Peptide exchange result is on record as “++++ (≥75% = ++++)”. The value for “86 (NLADNTILV; peptide displayed by HLA-A*02) [compound 86]” was “++++ (≥75% = ++++)”; that for “19 (RLLDTTDVYLL; peptide displayed by HLA-A*02) [compound 19]” was “++++ (≥75% = ++++)”. The value for “23 (FLGPIVDL; peptide displayed by HLA-A*02) [compound 23]” was “++++ (≥75% = ++++)”. The value for “50 (ALYDSTRELL; peptide displayed by HLA-A*02) [compound 50]” was “++++ (≥75% = ++++)”.

As for “41 (FLDTSTADV; peptide displayed by HLA-A*02) [compound 41]”, the Peptide exchange result is given as “++++ (≥75% = ++++)”.

With “46 (SLSDVSQAV; peptide displayed by HLA-A*02) [compound 46]”, the Peptide exchange entry is on record as “+++ (≥50% = +++)”. Take “75 (KLHDTSFCL; peptide displayed by HLA-A*02) [compound 75]”: the Peptide exchange result is on record as “++++ (≥75% = ++++)”. The value for “25 (FMNDRSFIL; peptide displayed by HLA-A*02) [compound 25]” was “++++ (≥75% = ++++)”. Take “16 (KLISDMGKDVSA; peptide displayed by HLA-A*02) [compound 16]”: the Peptide exchange result was “+++ (≥50% = +++)”. For the substance “52 (ILFDDSVFTL; peptide displayed by HLA-A*02) [compound 52]”, the Peptide exchange entry is “++++ (≥75% = ++++)”. As to “63 (GLDRTQLVNV; peptide displayed by HLA-A*02) [compound 63]”, the Peptide exchange entry is “++++ (≥75% = ++++)”. The value for “11 (GLVDGSSVTV; peptide displayed by HLA-A*02) [compound 11]” was “++++ (≥75% = ++++)”. The value for “79 (ALAGLVYDA; peptide displayed by HLA-A*02) [compound 79]” was “++++ (≥75% = ++++)”; that for “22 (HMIDLTIHL; peptide displayed by HLA-A*02) [compound 22]” was “+++ (≥50% = +++)”; that for “5 (ALPQFFNDV; peptide displayed by HLA-A*02) [compound 5]” was “++++ (≥75% = ++++)”. The value for “87 (NMYDLTFHV; peptide displayed by HLA-A*02) [compound 87]” was “++++ (≥75% = ++++)”; that for “91 (VLKDGTLVI; peptide displayed by HLA-A*02) [compound 91]” was “++ (≥20% =++)”; that for “32 (ALADLTGTVVNL; peptide displayed by HLA-A*02) [compound 32]” was “++++ (≥75% = ++++)”.

With “69 (SLLDENDVSSYL; peptide displayed by HLA-A*02) [compound 69]”, the Peptide exchange entry is “++++ (≥75% = ++++)”.

“59 (SQTDLSPAL; peptide displayed by HLA-A*02) [compound 59]”: the Peptide exchange entry is “++++ (≥75% = ++++)”. Regarding “92 (YLADFSHAT; peptide displayed by HLA-A*02) [compound 92]”, the Peptide exchange entry was “++++ (≥75% = ++++)”. As for “83 (FLNVDVSEV; peptide displayed by HLA-A*02) [compound 83]”, the Peptide exchange entry is listed as “++++ (≥75% = ++++)”. The value for “37 (AIDDTAARL; peptide displayed by HLA-A*02) [compound 37]” was “+++ (≥50% = +++)”.

For the substance “36 (SLYDFTGEQMAA; peptide displayed by HLA-A*02) [compound 36]”, the Peptide exchange result is on record as “+++ (≥50% = +++)”. The value for “48 (AIYHDITGISV; peptide displayed by HLA-A*02) [compound 48]” was “+++ (≥50% = +++)”; that for “31 (TLIDATWLV; peptide displayed by HLA-A*02) [compound 31]” was “++++ (≥75% = ++++)”. Consider “57 (SLDISLPNL; peptide displayed by HLA-A*02) [compound 57]”, for which the Peptide exchange entry is on record as “++++ (≥75% = ++++)”.

Take “81 (AVDKTQTSV; peptide displayed by HLA-A*02) [compound 81]”: the Peptide exchange entry was “+++ (≥50% = +++)”.

Consider “64 (ILFDPDNSSAL; peptide displayed by HLA-A*02) [compound 64]”, for which the Peptide exchange entry is on record as “++++ (≥75% = ++++)”. The value for “67 (LLDTTDVYL; peptide displayed by HLA-A*02) [compound 67]” was “+++ (≥50% = +++)”; that for “34 (SLLDGSESAKL; peptide displayed by HLA-A*02) [compound 34]” was “++++ (≥75% = ++++)”; that for “54 (KLEERVYDV; peptide displayed by HLA-A*02) [compound 54]” was “++++ (≥75% = ++++)”. The same measure for “35 (SLRDGTEVV; peptide displayed by HLA-A*02) [compound 35]”: “+++ (≥50% = +++)”.

(Values after patent US11969464B2, “Amidated peptides and their deamidated counterparts displayed by HLA-A*02 for use in immunotherapy against different types of cancers” (Immatics Biotechnologies GmbH, priority 2020, dated 2024).)
